This assay concerns the target murine receptor (mouse) (UniProt Q08351). The assay can be described thus: cell-based or functional assay.

Chain of murine receptor (mouse) (Q08351 26-625): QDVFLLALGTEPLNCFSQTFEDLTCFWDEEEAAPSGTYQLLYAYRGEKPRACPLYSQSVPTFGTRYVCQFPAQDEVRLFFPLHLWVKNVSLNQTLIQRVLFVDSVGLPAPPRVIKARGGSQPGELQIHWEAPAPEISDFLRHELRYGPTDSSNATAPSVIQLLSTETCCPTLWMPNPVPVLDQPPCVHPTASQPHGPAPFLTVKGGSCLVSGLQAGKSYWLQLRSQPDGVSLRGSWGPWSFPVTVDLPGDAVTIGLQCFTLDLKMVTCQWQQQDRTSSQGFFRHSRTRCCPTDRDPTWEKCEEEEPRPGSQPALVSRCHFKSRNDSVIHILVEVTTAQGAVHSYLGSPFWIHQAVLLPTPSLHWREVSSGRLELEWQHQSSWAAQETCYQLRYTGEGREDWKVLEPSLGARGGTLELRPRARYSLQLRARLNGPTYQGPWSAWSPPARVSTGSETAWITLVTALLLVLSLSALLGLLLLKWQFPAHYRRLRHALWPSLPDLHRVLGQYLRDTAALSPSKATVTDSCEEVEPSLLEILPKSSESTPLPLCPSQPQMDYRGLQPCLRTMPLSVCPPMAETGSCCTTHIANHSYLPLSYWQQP

In turn, “recombinant human TPO (from UniProt P40225 22-353) (ligand)” registered a colonies of 3-5 large cells, mouse marrow in methylcellulose, 1 nM TPO #1-1 of 15 colonies; a colonies of 3-5 large cells, mouse marrow in methylcellulose, 1 nM TPO #1-2 of 12 colonies; a colonies of 3-5 large cells, mouse marrow in methylcellulose, 1 nM TPO #2-1 of 16 colonies; a colonies of 3-5 large cells, mouse marrow in methylcellulose, 1 nM TPO #2-2 of 13 colonies. Besides, the colonies of 6-12 large cells, mouse marrow in methylcellulose, 1 nM TPO #1-1 amounted to 6 colonies; the colonies of 6-12 large cells, mouse marrow in methylcellulose, 1 nM TPO #1-2 was 1 colonies; the colonies of 6-12 large cells, mouse marrow in methylcellulose, 1 nM TPO #2-1 worked out at 8 colonies; the colonies of 6-12 large cells, mouse marrow in methylcellulose, 1 nM TPO #2-2 was determined as 3 colonies.

Values taken from patent publication US7091311.
